One block for each substance: values may come before it.
Columns and labels:
Test in all cases: cross-linking; in vivo cysteine cross-linking with 180 μM aldrithiol-4, 20 min, 37 °C, in SUKO HEK-293T cells expressing single-cysteine STIM1 with or without UNC93B1-FLAG-MYC, treated or not with 0.5 μM thapsigargin for 5 min; non-reducing electrophoresis, blot with anti-STIM1
[1] = biological target: STIM1-A230C (cysteine-less STIM1 with a single cysteine at residue 230, TM region) (UniProt Q13586)
[2] = biological target: STIM1-L251C (cysteine-less STIM1 with a single cysteine at residue 251, CC1 domain) (UniProt Q13586)
[3] = biological target: STIM1-M241C (cysteine-less STIM1 with a single cysteine at residue 241, juxtamembrane region) (UniProt Q13586)

- stoichiometry N [1]: 2
Substance: STIM1-A230C (cysteine-less STIM1 with a single cysteine at residue 230, TM region) (from UniProt Q13586 23-685) (natural protein)

Substance: STIM1-L251C (cysteine-less STIM1 with a single cysteine at residue 251, CC1 domain) (from UniProt Q13586 23-685) (natural protein)
- stoichiometry N [2]: 2

- stoichiometry N [3]: 2
Substance: STIM1-M241C (cysteine-less STIM1 with a single cysteine at residue 241, juxtamembrane region) (from UniProt Q13586 23-685) (natural protein)

Reference: publication PMC8857484
